From publication PMC4933246, “Alanine Expansions Associated with Congenital Central Hypoventilation Syndrome Impair PHOX2B Homeodomain-mediated Dimerization and Nuclear Import*” (The Journal of Biological Chemistry, 2016)

Molecular target: the molecule itself
Experiment: two-hybrid; mammalian two-hybrid (CheckMate, Promega) in HeLa cells; GAL4 BD fusion (pBIND) and VP16 AD fusion (pACT), 80 fmol each, with 160 fmol pG5LUC; Dual-Luciferase assay

B1: PHOX2A fused to GAL4 BD or VP16 AD (natural protein)
chain: not shown
notes: PHOX2A, human; Each copy carries either GAL4 BD or VP16 AD; also called GAL4 BD-PHOX2A; VP16 AD-PHOX2A; source: mammalian two-hybrid fusion, transfected HeLa cells
- luciferase activity relative to that of the PHOX2B fusion constructs: > 2 fold
